Data: doi:10.1101/2020.05.19.105320

B1: H10PDIP38 (PDIP38 with an N-terminal H10-tag) (natural protein)
chain: SSRNRPEGKVLETVGVFEVPKQNGKYETGQLFLHSIFGYRGVVLFPWQARLYDRDVASAAPEKAENPAGHGSKEVKGKTHTYYQVLIDARDCPHISQRSQTEAVTFLANHDDSRALYAIPGLDYVSHEDILPYTSTDQVPIQHELFERFLLYDQTKAPPFVARETLRAWQEKNHPWLELSDVHRETTENIRVTVIPFYMGMREAQNSHVYWWRYCIRLENLDSDVVQLRERHWRIFSLSGTLETVRGRGVVGREPVLSKEQPAFQYSSHVSLQASSGHMWGTFRFERPDGSHFDVRIPPFSLESNKDEKTPPSGLHW

Biological target: H10CLPX Zinc binding domain (CLPXZBD) (human)
Assay: SEC

Molecule | stoichiometry N
H10CLPX Zinc binding domain (CLPXZBD) (domain or fragment) | 2
B1 | 1
